B1: ZBTB22 (parent)
chain: HTGLKPYECGVCAKKFMWRDSFMR

Variants of: B1
Assay: protein stability index of a GFP-peptide fusion (GPS, HEK-293T) (PSI 1-6); higher = more stable
Conditions: c terminus: a fixed tail appended
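Note: lentivirally expressed fusions sorted by FACS into six bins by GFP to DsRed ratio, PSI derived from sequencing read proportions per bin multiplied by bin number.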

Variant	protein stability index
HTGLKPYECGVCAKKFMARDSFMR [W18A]	1.06
HTGLKPYECGVCAKKFMCRDSFMR [W18C]	1.85
HTGLKPYECGVCAKKFMDRDSFMR [W18D]	2.09
HTGLKPYECGVCAKKFMERDSFMR [W18E]	2.75
HTGLKPYECGVCAKKFMHRDSFMR [W18H]	2.81
HTGLKPYECGVCAKKFMIRDSFMR [W18I]	1.57
HTGLKPYECGVCAKKFMKRDSFMR [W18K]	1.75
HTGLKPYECGVCAKKFMLRDSFMR [W18L]	3.88
HTGLKPYECGVCAKKFMMRDSFMR [W18M]	1.78
HTGLKPYECGVCAKKFMNRDSFMR [W18N]	1.61
HTGLKPYECGVCAKKFMPRDSFMR [W18P]	2.88
HTGLKPYECGVCAKKFMRRDSFMR [W18R]	2.05
HTGLKPYECGVCAKKFMSRDSFMR [W18S]	1.52
HTGLKPYECGVCAKKFMTRDSFMR [W18T]	1.68
HTGLKPYECGVCAKKFMVRDSFMR [W18V]	2.43
HTGLKPYECGVCAKKFMYRDSFMR [W18Y]	3
HTGLKPYECGVCAKKFMWADSFMR [R19A]	2.81
HTGLKPYECGVCAKKFMWCDSFMR [R19C]	1.59
HTGLKPYECGVCAKKFMWDDSFMR [R19D]	1.88
HTGLKPYECGVCAKKFMWEDSFMR [R19E]	1.58
HTGLKPYECGVCAKKFMWFDSFMR [R19F]	1.55
HTGLKPYECGVCAKKFMWHDSFMR [R19H]	2.12
HTGLKPYECGVCAKKFMWIDSFMR [R19I]	1.71
HTGLKPYECGVCAKKFMWKDSFMR [R19K]	2.88

Variant	protein stability index
HTGLKPYECGVCAKKFMWLDSFMR [R19L]	2.82
HTGLKPYECGVCAKKFMWMDSFMR [R19M]	2.01
HTGLKPYECGVCAKKFMWNDSFMR [R19N]	2.29
HTGLKPYECGVCAKKFMWPDSFMR [R19P]	4.1
HTGLKPYECGVCAKKFMWQDSFMR [R19Q]	2.03
HTGLKPYECGVCAKKFMWSDSFMR [R19S]	2.12
HTGLKPYECGVCAKKFMWTDSFMR [R19T]	2.13
HTGLKPYECGVCAKKFMWWDSFMR [R19W]	1.77
HTGLKPYECGVCAKKFMWYDSFMR [R19Y]	2.06
HTGLKPYECGVCAKKFMWRASFMR [D20A]	2.16
HTGLKPYECGVCAKKFMWRCSFMR [D20C]	3.48
HTGLKPYECGVCAKKFMWRFSFMR [D20F]	2.08
HTGLKPYECGVCAKKFMWRGSFMR [D20G]	3.52
HTGLKPYECGVCAKKFMWRHSFMR [D20H]	2.65
HTGLKPYECGVCAKKFMWRISFMR [D20I]	2.1
HTGLKPYECGVCAKKFMWRKSFMR [D20K]	3.45
HTGLKPYECGVCAKKFMWRLSFMR [D20L]	2.27
HTGLKPYECGVCAKKFMWRNSFMR [D20N]	2.48
HTGLKPYECGVCAKKFMWRPSFMR [D20P]	1.72
HTGLKPYECGVCAKKFMWRQSFMR [D20Q]	1.74
HTGLKPYECGVCAKKFMWRSSFMR [D20S]	2.08
HTGLKPYECGVCAKKFMWRVSFMR [D20V]	1.69
HTGLKPYECGVCAKKFMWRYSFMR [D20Y]	2.74
HTGLKPYECGVCAKKFMWRDAFMR [S21A]	2.23

Variant	protein stability index
HTGLKPYECGVCAKKFMWRDEFMR [S21E]	1.78
HTGLKPYECGVCAKKFMWRDFFMR [S21F]	1.98
HTGLKPYECGVCAKKFMWRDGFMR [S21G]	2.9
HTGLKPYECGVCAKKFMWRDHFMR [S21H]	2.26
HTGLKPYECGVCAKKFMWRDIFMR [S21I]	2.32
HTGLKPYECGVCAKKFMWRDLFMR [S21L]	3.24
HTGLKPYECGVCAKKFMWRDNFMR [S21N]	1.49
HTGLKPYECGVCAKKFMWRDPFMR [S21P]	3.07
HTGLKPYECGVCAKKFMWRDQFMR [S21Q]	1.83
HTGLKPYECGVCAKKFMWRDRFMR [S21R]	1.08
HTGLKPYECGVCAKKFMWRDTFMR [S21T]	1.73
HTGLKPYECGVCAKKFMWRDVFMR [S21V]	2.1
HTGLKPYECGVCAKKFMWRDWFMR [S21W]	2.84
HTGLKPYECGVCAKKFMWRDYFMR [S21Y]	2.58
HTGLKPYECGVCAKKFMWRDSAMR [F22A]	1.79
HTGLKPYECGVCAKKFMWRDSCMR [F22C]	2.21
HTGLKPYECGVCAKKFMWRDSDMR [F22D]	3.47
HTGLKPYECGVCAKKFMWRDSEMR [F22E]	3.96
HTGLKPYECGVCAKKFMWRDSHMR [F22H]	1.45
HTGLKPYECGVCAKKFMWRDSKMR [F22K]	2.54
HTGLKPYECGVCAKKFMWRDSLMR [F22L]	2.46
HTGLKPYECGVCAKKFMWRDSNMR [F22N]	1.49
HTGLKPYECGVCAKKFMWRDSPMR [F22P]	2.07
HTGLKPYECGVCAKKFMWRDSQMR [F22Q]	3.48

Variant	protein stability index
HTGLKPYECGVCAKKFMWRDSRMR [F22R]	1.56
HTGLKPYECGVCAKKFMWRDSSMR [F22S]	1.66
HTGLKPYECGVCAKKFMWRDSTMR [F22T]	1.74
HTGLKPYECGVCAKKFMWRDSWMR [F22W]	1.53
HTGLKPYECGVCAKKFMWRDSYMR [F22Y]	1.89
HTGLKPYECGVCAKKFMWRDSFAR [M23A]	3.12
HTGLKPYECGVCAKKFMWRDSFER [M23E]	4.04
HTGLKPYECGVCAKKFMWRDSFFR [M23F]	2.41
HTGLKPYECGVCAKKFMWRDSFGR [M23G]	1.69
HTGLKPYECGVCAKKFMWRDSFHR [M23H]	2.79
HTGLKPYECGVCAKKFMWRDSFIR [M23I]	1.88
HTGLKPYECGVCAKKFMWRDSFKR [M23K]	1.92
HTGLKPYECGVCAKKFMWRDSFLR [M23L]	1.85
HTGLKPYECGVCAKKFMWRDSFNR [M23N]	2.22
HTGLKPYECGVCAKKFMWRDSFPR [M23P]	2.28
HTGLKPYECGVCAKKFMWRDSFQR [M23Q]	3.15
HTGLKPYECGVCAKKFMWRDSFRR [M23R]	2.64
HTGLKPYECGVCAKKFMWRDSFSR [M23S]	2.46
HTGLKPYECGVCAKKFMWRDSFTR [M23T]	2.71
HTGLKPYECGVCAKKFMWRDSFVR [M23V]	1.96
HTGLKPYECGVCAKKFMWRDSFWR [M23W]	2.22
HTGLKPYECGVCAKKFMWRDSFYR [M23Y]	2.82

From the supplement of paper PMC10567573
